{"source": "paper PMC7312448", "target": "MavC (wild type) (L. pneumophila)", "assay": "SEC", "data": [{"substance": "MavC (wild type) (enzyme)", "values": [{"measurement": "stoichiometry N", "value": 2}]}]}
